Assay results as given in patent US20220195068A1 (TENEOBIO, published 2022).

Each binder was assayed against T1, human PSMA (Prostate Specific Membrane Antigen, Glutamate Carboxypeptidase II) on cells (human, UniProt Q04609 1-750) (assay: flow cytometry on LNCaP cells).
T1 construct: whole, on cells; the cell line is named under assay; also called cell surface expressed PSMA; FOLH1
Experimental: Briefly, 50,000 target cells were stained with a dilution series of purified UniAbs™ for 30 minutes at 4° C. Following incubation, the cells were washed twice with flow cytometry buffer (1X PBS, 1% BSA, 0.1% NaN₃) and stained with goat F(ab')₂ anti-human IgG conjugated to R-phycoerythrin (PE) (Southern Biotech, cat. #2042-09) to detect cell-bound antibodies. After a 20-minute incubation at 4° C., the cells were washed twice with flow cytometry buffer and the mean fluorescence intensity (MFI) was measured by flow cytometry. The MFI of cells stained with secondary antibody alone were used for determination of background signal and binding of each antibody was converted to fold over background. Binding to cynomolgus PSMA positive cells was determined using the same protocol with the following modifications: the target cells were from Freestyle 293-F cells (ThermoFisher R79007) transiently transfected to express the extracellular domain of cynomolgus PSMA. In some experiments EC50 values were calculated using GraphPad Prism 7.

T1 sequence (Q04609 whole entry): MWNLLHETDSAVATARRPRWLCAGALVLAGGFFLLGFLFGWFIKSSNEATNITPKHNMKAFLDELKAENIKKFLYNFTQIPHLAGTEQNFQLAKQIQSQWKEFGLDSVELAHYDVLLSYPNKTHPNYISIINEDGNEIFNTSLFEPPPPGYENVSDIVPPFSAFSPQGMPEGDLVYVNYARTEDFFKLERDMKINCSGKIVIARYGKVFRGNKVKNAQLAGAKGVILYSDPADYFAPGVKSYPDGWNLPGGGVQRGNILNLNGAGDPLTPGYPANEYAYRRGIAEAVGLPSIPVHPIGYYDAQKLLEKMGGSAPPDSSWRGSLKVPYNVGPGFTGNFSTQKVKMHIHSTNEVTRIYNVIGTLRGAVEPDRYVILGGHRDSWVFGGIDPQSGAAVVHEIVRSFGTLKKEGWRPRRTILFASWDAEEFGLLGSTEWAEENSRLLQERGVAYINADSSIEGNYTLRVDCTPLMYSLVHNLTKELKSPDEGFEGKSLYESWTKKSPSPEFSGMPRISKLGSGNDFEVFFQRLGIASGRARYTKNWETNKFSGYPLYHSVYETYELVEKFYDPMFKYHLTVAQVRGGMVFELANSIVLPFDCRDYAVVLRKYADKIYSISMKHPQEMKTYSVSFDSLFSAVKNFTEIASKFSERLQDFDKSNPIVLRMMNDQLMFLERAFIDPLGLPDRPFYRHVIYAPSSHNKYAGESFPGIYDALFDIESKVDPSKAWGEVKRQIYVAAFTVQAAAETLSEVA

| fold over the background MFI signal | Binder |
| --- | --- |
| 216 fold over background | anti-PSMA heavy chain antibody clone ID 346172 (antibody, V domains shown, heavy chain-only antibody (UniAb), no light chain) VH: QLQLQESGPGLVKPSETLSLTCTVSGGSISSSSYYWGWIRQPPGKGLEWIGSIDYSGYTYYNPSLKSRVTISVDTSKNQFSLKLSSVTAADTAVYNCARHKAATADFDYRGQGTLVTVSS |
| 243 fold over background | anti-PSMA heavy chain antibody clone ID 346165 (antibody, V domains shown, heavy chain-only antibody (UniAb), no light chain) VH: QLQLQESGPGLVKPSETLSLTCTVSGGSISSSSYYWGWIRQPPGKGLEWIGSVDYSGYTYYNPSLQSRVTISVDTSKNQFSLKLSSVTAADTAVYNCARHKAATADFDYRGQGTLVTVSS |
| 25 fold over background | anti-PSMA heavy chain antibody clone ID 326109 (antibody, V domains shown, heavy chain-only antibody (UniAb), no light chain) VH: QLQLQESGPGLVKPSETLSLTCTVSGGSISSNSYYWGWIRQSPGKGLEWLGSIYDSGSTHYNPSLKSRVIISGDTSKNQFSLKLSSVTAADTAVYYCARHKAATADFDYRGQGTLVTVSS |
| 282 fold over background | anti-PSMA heavy chain antibody clone ID 325920 (antibody, V domains shown, heavy chain-only antibody (UniAb), no light chain; also called Antibody 2) VH: QLQLQESGPGLVKPSETLSLTCTVSGGSISSSSYYWGWIRQPPGKGLEWIGSIDYSGYTYYNPSLQSRVTISVDTSKNQFSLKLSSVTAADTAVYNCARHKAATADFDYRGQGTLVTVSS |
| 264 fold over background | anti-PSMA heavy chain antibody clone ID 346181 (antibody, V domains shown, heavy chain-only antibody (UniAb), no light chain; also called HCAb 346181) VH: QLQLQESGPGLVKPSETLSLTCTVSGGSISSSNYFWGWIRQSPGKGLEWIGSIDYSGYTYYNPSLKSRVTISVDTSKNQFSLKLSSVTAADTAVYNCARHKAATADFDYRGQGTLVTVSS |
| 193 fold over background | anti-PSMA heavy chain antibody clone ID 325748 (antibody, V domains shown, heavy chain-only antibody (UniAb), no light chain) VH: QVQLVESGGGVVQPGRSLRLSCAASGFSFSSYGMHWVRQAPGKGLEGVAVIWYDGSNRYYADSVKGRFTISRDNSKNTLYLQMNSLRAEDTAVYYCAREPRIGYYYESSGYYSLDYRGQGTLVTVSS |
| 117 fold over background | anti-PSMA heavy chain antibody clone ID 326028 (antibody, V domains shown, heavy chain-only antibody (UniAb), no light chain) VH: QVQLVESGGGVVQPGRSLRLSCAASGFSFRSYGMHWVRQAPGKGLEWVAVISYDGSNKYYADSVKGRFTISRDYSKNTLYLQMNSLRAEDTAVYYCAREPRIGYYYDSSGYDSLDYRGQGTLVTVSS |
| 14 fold over background | anti-PSMA heavy chain antibody clone ID 345447 (antibody, V domains shown, heavy chain-only antibody (UniAb), no light chain) VH: QVQLVESGGGVVQPGRSLRLSCAASGFSFSSYGMHWVRQAPGKGLEGVAVISYDGSNRYYADSVKGRFTISRDNSKNTLYLQMNSLRAEDTAVYYCAREPRIGYYYESSGYYSLDYRGQGTLVTVSS |
| 23 fold over background | anti-PSMA heavy chain antibody clone ID 345444 (antibody, V domains shown, heavy chain-only antibody (UniAb), no light chain) VH: QVQLVESGGGVVQPGRSLRLSCAASGFTFSSYGMHWVRQAPGKGLEGVAVIWYDGSNRYYADSVKGRFTISRDNSKNTLYLQMNSLRAEDTAVYYCAREPRIGYYYESSGYYSLDYRGQGTLVTVSS |
| 22 fold over background | anti-PSMA heavy chain antibody clone ID 345421 (antibody, V domains shown, heavy chain-only antibody (UniAb), no light chain) VH: QVQLVESVGGVVQPGRSLRLSCAASGFSFSSYGMHWVRQAPGKGLEGVAVIWYDGSNRYYADSVKGRFTISRDNSKNTLYLQMNSLRAEDTAVYYCAREPRIGYYYESSGYYSLDYRGQGTLVTVSS |
| 210 fold over background | anti-PSMA heavy chain antibody clone ID 325867 (antibody, V domains shown, heavy chain-only antibody (UniAb), no light chain; also called Antibody 1) VH: QVQLVESGGGVVQPGRSLRLSCAASGFSFRSYGMHWVRQAPGKGLEWVAVIWYDGSNKYYADSVKGRFTISRDYSKNTLYLQMNSLRAEDTAVYYCAREPRIGYYYESSGYDSLDYRGQGTLVTVSS |
| 87 fold over background | anti-PSMA heavy chain antibody clone ID 345436 (antibody, V domains shown, heavy chain-only antibody (UniAb), no light chain) VH: QVQLVESGGGVVQPGRSLRLSCAASGFSFSRYGMHWVRQAPGKGLEGVAVIWYDGSNKYYADSVKGRFTISRDNSKNTLYLQMNSLRAEDTAVYYCAREPRIGYYYESSGYYSLDYRGQGTLVTVSS |
| 169 fold over background | anti-PSMA heavy chain antibody clone ID 325940 (antibody, V domains shown, heavy chain-only antibody (UniAb), no light chain) VH: QVQLVESGGGVVQPGRSLRLSCAASGFIFRSYGMHWVRQAPGKGPEWVAVIWYDGSNKYYADSVKGRFTISRDNSKNTLYLQMNSLRAEDTAVYYCAREPRIGYYYESSGYYSLDYRGQGTLVTVSS |
| 129 fold over background | anti-PSMA heavy chain antibody clone ID 326087 (antibody, V domains shown, heavy chain-only antibody (UniAb), no light chain) VH: QVQLVESGGGVVQPGRSLRLSCAASGFIFRSYGMHWVRQAPGKGPEWVAVIWYDGSNKYYADSVKGRFTISRDNSKNTLYLQMNSLRAEDTAVYYCAREPRIGYYYDSSGYDSLDYRGQGTLVTVSS |
| 68 fold over background | anti-PSMA heavy chain antibody clone ID 345463 (antibody, V domains shown, heavy chain-only antibody (UniAb), no light chain) VH: QVQLVESGGGVVQPGRSLRLSCAASGFIFRSYGMHWVRQAPGKGPEWVAVIWYDGSNKYYADSVKGRFTISRDNSKNTLYLQMNSLRAEDTAVYYCAREPRIGYYYESSGYYSLDYRGQGTLVTVSS |
| 71 fold over background | anti-PSMA heavy chain antibody clone ID 345485 (antibody, V domains shown, heavy chain-only antibody (UniAb), no light chain) VH: QVQLVESGGGVVQPGRSLRLSCAASGFSFRSYGMHWVRQAPGKGLEWVAVIWYDGSNKYYADSVKGRFTISRDNSKNTMYLQMNSLRAEDTAVYYCAREPRIGYYYESSGYYSLDYRGQGTLVTVSS |
| 112 fold over background | anti-PSMA heavy chain antibody clone ID 345497 (antibody, V domains shown, heavy chain-only antibody (UniAb), no light chain; also called HCAb 345497) VH: QVQLVESGGGVVQPGRSLRLSCAASGFSFSRYGMHWVRQAPGKGLEGVAVIWYDGSNRYYADSVKGRFTISRDNSKNTLYLQMNSLRAEDTAVYYCAREPRIGYYYESSGYYSLDYRGQGTLVTVSS |
| 13 fold over background | anti-PSMA heavy chain antibody clone ID 345438 (antibody, V domains shown, heavy chain-only antibody (UniAb), no light chain) VH: QVQLVESGGGVVQPGRSLRLSCAASGFSFSSYGMHWVRQAPGKGPEWVAVIWYDGSNKYYADSVKGRFTISRDNSKNTLYLQMNSLRAEDTAVYYCAREPRIGYYYESSGYYSLDYRGQGTLVTVSS |
| 109 fold over background | anti-PSMA heavy chain antibody clone ID 326029 (antibody, V domains shown, heavy chain-only antibody (UniAb), no light chain) VH: QVQLVESGGGVVQPGRSLRLSCAASGFSFSRYGMHWVRQAPGKGLEWVAVISYDGSNKYYADSVKGRFTISRDNSKNTLYLQMNSLRAEDTAVYYCAREPRVGYYYETSGYYSLDYRGQGTLVTVSS |
| 47 fold over background | anti-PSMA heavy chain antibody clone ID 345480 (antibody, V domains shown, heavy chain-only antibody (UniAb), no light chain) VH: QVQLVESGGGVVQPGRSLRLSCAASGFSFSSYGMHWVRQAPGKGLEWVAVIWYDGSNRYYADSVKGRFTISRDNSKNTLYLQMNSLRAEDTAVYYCAREPRIGYYYESSGYYSLDYRGQGTLVTVSS |
| 38 fold over background | anti-PSMA heavy chain antibody clone ID 326116 (antibody, V domains shown, heavy chain-only antibody (UniAb), no light chain) VH: QVQLVESGGGVVQPGRSLRLSCAASGFSFSRYGMHWVRQAPGKGLEGVAVISYDGSNKYYADSVKGRFTISRDYSKNTLYLQMNSLRAEDTAVYYCAREPRIGYYYDSSGYDSLDYRGQGTLVTVSS |
| 125 fold over background | anti-PSMA heavy chain antibody clone ID 326084 (antibody, V domains shown, heavy chain-only antibody (UniAb), no light chain) VH: QVQLVESGGGVVQPGRSLRLSCAASGFSFSSYGMHWVRQAPGKGLEGVAVIWYDGSNRYYADSVKGRFTISRDNSKNTLYLQMNSLRAEDTAVYYCAREPRIGYYYDSSGYYSLDYRGQGTLVTVSS |
| 84 fold over background | anti-PSMA heavy chain antibody clone ID 345443 (antibody, V domains shown, heavy chain-only antibody (UniAb), no light chain) VH: QVQLVESGGGVVQPGRSLRLSCAASGFSFSSYGMHWVRQAPGKGLEGVAVIWYDGSNRYYADSVKGRFTISRDNSKNTLFLQMNSLRAEDTAVYYCAREPRIGYYYESSGYYSLDYRGQGTLVTVSS |
| 138 fold over background | anti-PSMA heavy chain antibody clone ID 326027 (antibody, V domains shown, heavy chain-only antibody (UniAb), no light chain) VH: QVQLVESGGGVVQPGRSLRLSCAASGFSFRSYGMHWVRQAPGKGLEWVAVIWYDGSNKYYADSVKGRFTISRDNSKNTLYLQMNSLRAEDTAVYYCAREPRIGYYYDSSGYDSLDYRGQGTLVTVSS |
| 80 fold over background | anti-PSMA heavy chain antibody clone ID 345490 (antibody, V domains shown, heavy chain-only antibody (UniAb), no light chain) VH: QVQLVESGGGLVKPGGSLRLSCAASGFSFSSYGMHWVRQAPGKGLEGVAVIWYDGSNRYYADSVKGRFTISRDNSKNTLYLQMNSLRAEDTAVYYCAREPRIGYYYESSGYYSLDYRGQGTLVTVSS |
| 80 fold over background | anti-PSMA heavy chain antibody clone ID 345482 (antibody, V domains shown, heavy chain-only antibody (UniAb), no light chain) VH: QVQLVESGGGVVQPGRSLRLSCAASGFSFSSYGMHWVRQAPGKGLEGVAVIWYDGSNRYYADSVKGRFTISRDSSKNTLYLQMNSLRAEDTAVYYCAREPRIGYYYESSGYYSLDYRGQGTLVTVSS |
| 102 fold over background | anti-PSMA heavy chain antibody clone ID 345461 (antibody, V domains shown, heavy chain-only antibody (UniAb), no light chain) VH: QVQLVESGGGVVQPGRSLRLSCAASGFSFTSYGMHWVRQAPGKGLEGVAVIWYDGSNRYYADSVKGRFTISRDNSKNTLYLQMNSLRAEDTAVYYCAREPRIGYYYESSGYYSLDYRGQGTLVTVSS |
| 163 fold over background | anti-PSMA heavy chain antibody clone ID 325836 (antibody, V domains shown, heavy chain-only antibody (UniAb), no light chain) VH: QVQLVESGGGVVQPGRSLRLSCAASGFSFRSYGMHWVRQAPGKGLEWVAVIWYDGSNKYYADSVKGRFTISRDYSKNTLYLQMNSLRAEDTAVYYCAREPRIGYYYDSSGYDSLDYRGQGTLVTVSS |
| 200 fold over background | anti-PSMA heavy chain antibody clone ID 325742 (antibody, V domains shown, heavy chain-only antibody (UniAb), no light chain) VH: QVQLVESGGGVVQPGRSLRLSCAASGFSFSSYGMHWVRQAPGKGLEWVAVIWYDGSNKYYADSVKGRFTISRDYSKNTLYLQMNSLRAEDTAVYYCAREPRIGYYYESSGYDSLDYRGQGTLVTVSS |
| 101 fold over background | anti-PSMA heavy chain antibody clone ID 345493 (antibody, V domains shown, heavy chain-only antibody (UniAb), no light chain) VH: QVQLVESGGGVVQPGRSLRLSCAASGFSFSRYGMHWVRQAPGKGLEWVAVIWYDGSNRYYADSVKGRFTISRDNSKNTLYLQMNSLRAEDTAVYYCAREPRIGYYYESSGYYSLDYRGQGTLVTVSS |
